# Laboratory results published in patent US7629443.
# Experiments:
# RBD-Fc (SARS-CoV; human) [1] = target: RBD-Fc (SARS-CoV; human) (UniProt P59594); test: ELISA, antigen coated 1 µg/ml, mAb 10 µg/ml
# [2] = target: DTT-reduced S1-C9 (SARS-CoV) (UniProt P59594); test: ELISA, antigen coated 1 µg/ml, mAb 10 µg/ml
# S1-C9 (SARS-CoV) = S1-C9 (SARS-CoV) (UniProt P59594); test: ELISA, antigen coated 1 µg/ml, mAb 10 µg/ml
# [3] = target: DTT-reduced RBD-Fc (SARS-CoV; human) (UniProt P59594); test: ELISA, antigen coated 1 µg/ml, mAb 10 µg/ml
# RBD-Fc (SARS-CoV; human) [4] = target: RBD-Fc (SARS-CoV; human) (UniProt P59594); test: competitive ELISA on coated RBD-Fc; competitor: biotinylated 11E12
# RBD-Fc (SARS-CoV; human) [5] = target: RBD-Fc (SARS-CoV; human) (UniProt P59594); test: competitive ELISA on coated RBD-Fc; competitor: biotinylated 45B5
# RBD-Fc (SARS-CoV; human) [6] = target: RBD-Fc (SARS-CoV; human) (UniProt P59594); test: competitive ELISA on coated RBD-Fc; competitor: biotinylated 17H9
# RBD-Fc (SARS-CoV; human) [7] = target: RBD-Fc (SARS-CoV; human) (UniProt P59594); test: competitive ELISA on coated RBD-Fc; competitor: biotinylated 10E7
# RBD-Fc (SARS-CoV; human) [8] = target: RBD-Fc (SARS-CoV; human) (UniProt P59594); test: competitive ELISA on coated RBD-Fc; competitor: biotinylated 33G4
# [9] = target: SARS-CoV S protein on SARS pseudovirus (SARS-CoV) (UniProt P59594); test: cell-based or functional assay
substance,measurement,setting,value
4D5 (antibody),reactivity (absorbance at 450 nm),RBD-Fc (SARS-CoV; human) [1],0.88
same,reactivity (absorbance at 450 nm),[2],0.94
same,reactivity (absorbance at 450 nm),S1-C9 (SARS-CoV),0.65
same,reactivity (absorbance at 450 nm),[3],1.36
same,% inhibition,RBD-Fc (SARS-CoV; human) [4],10.6%
same,% inhibition,RBD-Fc (SARS-CoV; human) [5],1%
same,% inhibition,RBD-Fc (SARS-CoV; human) [6],-10.5%
same,% inhibition,RBD-Fc (SARS-CoV; human) [7],13%
same,% inhibition,RBD-Fc (SARS-CoV; human) [8],-11.1%
same,"ND50, neutralization of SARS pseudovirus infection of 293T/ACE2 cells",[9],> 100 µg/mL
